Assay results from article PMC10786891, “Massively parallel profiling of RNA-targeting CRISPR-Cas13d”.

T1: EsCas13d, nuclease-dead (Eubacterium siraeum, UniProt B0MS50, R295A;H300A;R849A;H854A)
T1 sequence: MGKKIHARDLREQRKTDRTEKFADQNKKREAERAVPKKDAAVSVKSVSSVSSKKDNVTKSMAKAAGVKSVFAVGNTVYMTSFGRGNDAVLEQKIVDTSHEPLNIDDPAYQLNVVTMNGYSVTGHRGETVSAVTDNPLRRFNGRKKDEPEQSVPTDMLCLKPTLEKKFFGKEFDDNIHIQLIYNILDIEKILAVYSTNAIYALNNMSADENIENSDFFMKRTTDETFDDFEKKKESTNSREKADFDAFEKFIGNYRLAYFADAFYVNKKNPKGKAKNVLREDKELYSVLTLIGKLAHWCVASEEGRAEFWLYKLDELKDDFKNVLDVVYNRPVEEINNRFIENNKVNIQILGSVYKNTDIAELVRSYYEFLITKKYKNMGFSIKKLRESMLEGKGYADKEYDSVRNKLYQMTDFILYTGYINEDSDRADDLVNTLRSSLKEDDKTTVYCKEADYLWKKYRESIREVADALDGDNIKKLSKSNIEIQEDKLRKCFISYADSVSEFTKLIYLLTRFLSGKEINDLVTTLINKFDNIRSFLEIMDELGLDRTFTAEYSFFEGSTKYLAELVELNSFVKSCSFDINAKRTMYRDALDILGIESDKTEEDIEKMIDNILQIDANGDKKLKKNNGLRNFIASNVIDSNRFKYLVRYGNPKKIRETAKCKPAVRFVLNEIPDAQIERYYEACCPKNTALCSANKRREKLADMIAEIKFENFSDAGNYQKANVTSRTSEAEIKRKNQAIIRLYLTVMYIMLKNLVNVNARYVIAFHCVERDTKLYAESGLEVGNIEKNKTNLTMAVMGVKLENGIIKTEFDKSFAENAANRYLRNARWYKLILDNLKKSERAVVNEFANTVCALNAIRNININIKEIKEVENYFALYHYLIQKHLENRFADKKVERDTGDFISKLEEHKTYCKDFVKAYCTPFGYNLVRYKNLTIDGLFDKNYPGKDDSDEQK

B1: target 1 A16C,C21A (mixed)
RNA 1: CACCCGUGCAAAAAUGCAGGGGUCUAAAACUGAGCGGAUAACCUCUCUAUGG
RNA 2: GGGAAUGGAUCCACAUCUACGAAUUCGUACAAUAGCGAGGUUAUCCGCUCACCGAGAUCGGAAGAGCACACGU
B2: target 1 C6U,A16U (mixed)
RNA 1: CACCCGUGCAAAAAUGCAGGGGUCUAAAACUGAGCGGAUAACCUCUCUAUGG
RNA 2: GGGAAUGGAUCCACAUCUACGAAUUCGUACCAUAGUGAGGUUAUCUGCUCACCGAGAUCGGAAGAGCACACGU
B3: target 2 MT 5'PFS CAG 3'PFS CUC (mixed)
RNA 1: CACCCGUGCAAAAUUGCAGGGGUCUAAAACCUUCUCCAAAUUGUUUCAUCCU
RNA 2: GGGAAUGGAUCCACAUCUACGAAUUCCAGAGGAUGAAACAAUUUGGAGAAGCUCAGAUCGGAAGAGCACACGU
B4: target 2 MT 5'PFS CUA 3'PFS CCA (mixed)
RNA 1: CACCCGUGCAAAAUUGCAGGGGUCUAAAACCUUCUCCAAAUUGUUUCAUCCU
RNA 2: GGGAAUGGAUCCACAUCUACGAAUUCCUAAGGAUGAAACAAUUUGGAGAAGCCAAGAUCGGAAGAGCACACGU
B5: target 2 MT 5'PFS GAU 3'PFS ACU (mixed)
RNA 1: CACCCGUGCAAAAUUGCAGGGGUCUAAAACCUUCUCCAAAUUGUUUCAUCCU
RNA 2: GGGAAUGGAUCCACAUCUACGAAUUCGAUAGGAUGAAACAAUUUGGAGAAGACUAGAUCGGAAGAGCACACGU
B6: target 2 MT 5'PFS AUU 3'PFS UCU (mixed)
RNA 1: CACCCGUGCAAAAUUGCAGGGGUCUAAAACCUUCUCCAAAUUGUUUCAUCCU
RNA 2: GGGAAUGGAUCCACAUCUACGAAUUCAUUAGGAUGAAACAAUUUGGAGAAGUCUAGAUCGGAAGAGCACACGU
B7: target 2 MT 5'PFS UAC 3'PFS AAG (mixed)
RNA 1: CACCCGUGCAAAAUUGCAGGGGUCUAAAACCUUCUCCAAAUUGUUUCAUCCU
RNA 2: GGGAAUGGAUCCACAUCUACGAAUUCUACAGGAUGAAACAAUUUGGAGAAGAAGAGAUCGGAAGAGCACACGU
B8: target 2 MT 5'PFS GGU 3'PFS AUC (mixed)
RNA 1: CACCCGUGCAAAAUUGCAGGGGUCUAAAACCUUCUCCAAAUUGUUUCAUCCU
RNA 2: GGGAAUGGAUCCACAUCUACGAAUUCGGUAGGAUGAAACAAUUUGGAGAAGAUCAGAUCGGAAGAGCACACGU
B9: target 2 MT 5'PFS GAU 3'PFS ACA (mixed)
RNA 1: CACCCGUGCAAAAUUGCAGGGGUCUAAAACCUUCUCCAAAUUGUUUCAUCCU
RNA 2: GGGAAUGGAUCCACAUCUACGAAUUCGAUAGGAUGAAACAAUUUGGAGAAGACAAGAUCGGAAGAGCACACGU
B10: target 2 MT 5'PFS CUA 3'PFS CCU (mixed)
RNA 1: CACCCGUGCAAAAUUGCAGGGGUCUAAAACCUUCUCCAAAUUGUUUCAUCCU
RNA 2: GGGAAUGGAUCCACAUCUACGAAUUCCUAAGGAUGAAACAAUUUGGAGAAGCCUAGAUCGGAAGAGCACACGU
B11: target 2 MT 5'PFS GAU 3'PFS ACC (mixed)
RNA 1: CACCCGUGCAAAAUUGCAGGGGUCUAAAACCUUCUCCAAAUUGUUUCAUCCU
RNA 2: GGGAAUGGAUCCACAUCUACGAAUUCGAUAGGAUGAAACAAUUUGGAGAAGACCAGAUCGGAAGAGCACACGU
B12: target 2 MT 5'PFS GUU 3'PFS UUU (mixed)
RNA 1: CACCCGUGCAAAAUUGCAGGGGUCUAAAACCUUCUCCAAAUUGUUUCAUCCU
RNA 2: GGGAAUGGAUCCACAUCUACGAAUUCGUUAGGAUGAAACAAUUUGGAGAAGUUUAGAUCGGAAGAGCACACGU
B13: target 2 MT 5'PFS CAU 3'PFS CUC (mixed)
RNA 1: CACCCGUGCAAAAUUGCAGGGGUCUAAAACCUUCUCCAAAUUGUUUCAUCCU
RNA 2: GGGAAUGGAUCCACAUCUACGAAUUCCAUAGGAUGAAACAAUUUGGAGAAGCUCAGAUCGGAAGAGCACACGU
B14: target 2 MT 5'PFS UAC 3'PFS CCC (mixed)
RNA 1: CACCCGUGCAAAAUUGCAGGGGUCUAAAACCUUCUCCAAAUUGUUUCAUCCU
RNA 2: GGGAAUGGAUCCACAUCUACGAAUUCUACAGGAUGAAACAAUUUGGAGAAGCCCAGAUCGGAAGAGCACACGU
B15: target 2 MT 5'PFS GUG 3'PFS UCU (mixed)
RNA 1: CACCCGUGCAAAAUUGCAGGGGUCUAAAACCUUCUCCAAAUUGUUUCAUCCU
RNA 2: GGGAAUGGAUCCACAUCUACGAAUUCGUGAGGAUGAAACAAUUUGGAGAAGUCUAGAUCGGAAGAGCACACGU
B16: target 2 MT 5'PFS UAC 3'PFS AAA (mixed)
RNA 1: CACCCGUGCAAAAUUGCAGGGGUCUAAAACCUUCUCCAAAUUGUUUCAUCCU
RNA 2: GGGAAUGGAUCCACAUCUACGAAUUCUACAGGAUGAAACAAUUUGGAGAAGAAAAGAUCGGAAGAGCACACGU
B17: target 2 MT 5'PFS CCU 3'PFS UCU (mixed)
RNA 1: CACCCGUGCAAAAUUGCAGGGGUCUAAAACCUUCUCCAAAUUGUUUCAUCCU
RNA 2: GGGAAUGGAUCCACAUCUACGAAUUCCCUAGGAUGAAACAAUUUGGAGAAGUCUAGAUCGGAAGAGCACACGU
B18: target 2 MT 5'PFS GGU 3'PFS AUU (mixed)
RNA 1: CACCCGUGCAAAAUUGCAGGGGUCUAAAACCUUCUCCAAAUUGUUUCAUCCU
RNA 2: GGGAAUGGAUCCACAUCUACGAAUUCGGUAGGAUGAAACAAUUUGGAGAAGAUUAGAUCGGAAGAGCACACGU
B19: target 2 MT 5'PFS UAC 3'PFS CCG (mixed)
RNA 1: CACCCGUGCAAAAUUGCAGGGGUCUAAAACCUUCUCCAAAUUGUUUCAUCCU
RNA 2: GGGAAUGGAUCCACAUCUACGAAUUCUACAGGAUGAAACAAUUUGGAGAAGCCGAGAUCGGAAGAGCACACGU
B20: target 2 MT 5'PFS GGU 3'PFS AUG (mixed)
RNA 1: CACCCGUGCAAAAUUGCAGGGGUCUAAAACCUUCUCCAAAUUGUUUCAUCCU
RNA 2: GGGAAUGGAUCCACAUCUACGAAUUCGGUAGGAUGAAACAAUUUGGAGAAGAUGAGAUCGGAAGAGCACACGU
B21: target 2 MT 5'PFS GAU 3'PFS ACG (mixed)
RNA 1: CACCCGUGCAAAAUUGCAGGGGUCUAAAACCUUCUCCAAAUUGUUUCAUCCU
RNA 2: GGGAAUGGAUCCACAUCUACGAAUUCGAUAGGAUGAAACAAUUUGGAGAAGACGAGAUCGGAAGAGCACACGU
B22: target 2 MT 5'PFS GUU 3'PFS UUC (mixed)
RNA 1: CACCCGUGCAAAAUUGCAGGGGUCUAAAACCUUCUCCAAAUUGUUUCAUCCU
RNA 2: GGGAAUGGAUCCACAUCUACGAAUUCGUUAGGAUGAAACAAUUUGGAGAAGUUCAGAUCGGAAGAGCACACGU
B23: target 2 MT 5'PFS UAC 3'PFS AAC (mixed)
RNA 1: CACCCGUGCAAAAUUGCAGGGGUCUAAAACCUUCUCCAAAUUGUUUCAUCCU
RNA 2: GGGAAUGGAUCCACAUCUACGAAUUCUACAGGAUGAAACAAUUUGGAGAAGAACAGAUCGGAAGAGCACACGU
B24: target 2 MT 5'PFS UAC 3'PFS CCA (mixed)
RNA 1: CACCCGUGCAAAAUUGCAGGGGUCUAAAACCUUCUCCAAAUUGUUUCAUCCU
RNA 2: GGGAAUGGAUCCACAUCUACGAAUUCUACAGGAUGAAACAAUUUGGAGAAGCCAAGAUCGGAAGAGCACACGU
B25: target 2 MT 5'PFS CCU 3'PFS UCC (mixed)
RNA 1: CACCCGUGCAAAAUUGCAGGGGUCUAAAACCUUCUCCAAAUUGUUUCAUCCU
RNA 2: GGGAAUGGAUCCACAUCUACGAAUUCCCUAGGAUGAAACAAUUUGGAGAAGUCCAGAUCGGAAGAGCACACGU
B26: target 2 MT 5'PFS UAC 3'PFS AAU (mixed)
RNA 1: CACCCGUGCAAAAUUGCAGGGGUCUAAAACCUUCUCCAAAUUGUUUCAUCCU
RNA 2: GGGAAUGGAUCCACAUCUACGAAUUCUACAGGAUGAAACAAUUUGGAGAAGAAUAGAUCGGAAGAGCACACGU
B27: target 2 MT 5'PFS CAU 3'PFS CUG (mixed)
RNA 1: CACCCGUGCAAAAUUGCAGGGGUCUAAAACCUUCUCCAAAUUGUUUCAUCCU
RNA 2: GGGAAUGGAUCCACAUCUACGAAUUCCAUAGGAUGAAACAAUUUGGAGAAGCUGAGAUCGGAAGAGCACACGU
B28: target 2 MT 5'PFS GGU 3'PFS AUA (mixed)
RNA 1: CACCCGUGCAAAAUUGCAGGGGUCUAAAACCUUCUCCAAAUUGUUUCAUCCU
RNA 2: GGGAAUGGAUCCACAUCUACGAAUUCGGUAGGAUGAAACAAUUUGGAGAAGAUAAGAUCGGAAGAGCACACGU

The binders below were run against T1, EsCas13d, nuclease-dead (assay: crRNA (strand 1, pre-loaded); Mg2+; 40 mM Tris-HCl pH 7.5, 150 mM NaCl, 6 mM MgCl2, 1 mM DTT, 0.1% Tween-20, 0.2 mg/ml BSA; 25 C; 10 min per concentration, then washed). Details: tags: His6-TwinStrep-SUMO cleaved; N-terminal SNAP kept (SNAP-Surface 488); label: 3' end held by stalled T7 RNA polymerase.

Going from B1 to B2, the Kd falls from 66 ± 11 nM to 37.1 ± 2.6 nM (1.8-fold). The second binds more tightly here.

First: B3
Second: B4
The Kd of the first is 2.2-fold higher: 6.5 ± 1.3 nM for the first, 2.9 ± 1 nM for the second. The second binds more tightly here.

Compared with B5, B6 is 1.9-fold lower in Kd: 20.1 ± 3.2 nM for the first, 10.7 ± 0.6 nM for the second. The second binds more tightly here.

Compared with B7, B8 is 3.4-fold higher in Kd: 5.8 ± 1 nM for the first, 20 ± 3 nM for the second.

Compared with B9, B10 is 4.6-fold higher in Kd: 10.6 ± 1.6 nM for the first, roughly 49 nM for the second. The first binds more tightly here.

First: B11
Second: B12
The Kd of the first is 2.9-fold lower: 17.7 ± 3.4 nM for the first, 51 ± 11 nM for the second. The first binds more tightly here.

Going from B13 to B14, the Kd rises from 6.8 ± 0.8 nM to roughly 19 nM (2.8-fold).

Compared with B15, B16 is 3.1-fold lower in Kd: 18.9 ± 1.8 nM for the first, 6 ± 1.4 nM for the second.

Compared with B17, B18 is 5.5-fold higher in Kd: 2.71 ± 0.32 nM for the first, 14.8 ± 1.6 nM for the second. The first binds more tightly here.

First: B19
Second: B20
The Kd of the first is 2.6-fold lower: 6.1 ± 1.4 nM for the first, 16.1 ± 1.6 nM for the second. The first binds more tightly here.

First: B21
Second: B22
The Kd of the first is 1.8-fold lower: 17.2 ± 2.2 nM for the first, 31 ± 5 nM for the second. The first binds more tightly here.

B23 and B24 are within error of each other in Kd: 11 ± 4 nM for the first, 17 ± 4 nM for the second.

Compared with B25, B26 is 5.7-fold higher in Kd: 1.74 ± 0.18 nM for the first, 10 ± 4 nM for the second. The first binds more tightly here.

Compared with B27, B28 is 2.7-fold higher in Kd: 5.4 ± 0.8 nM for the first, 14.8 ± 2.7 nM for the second.
